According to patent US20120121587A1 (Chugai, published 2012):
Where a chain is given by its changes, count along the chain named.

T1: Human recombinant AXL-FND1 (GST-FND1), from pET-41b(+) (human, UniProt P30530 225-331)
T1 construct: Expressed in E. coli, purified on Glutathione Sepharose; analyte in all Biacore measurements; GST put first by the usual layout of pET-41; not shown: GST-tag of vector pET-41b(+) (Novagen)
T1 sequence (looked up): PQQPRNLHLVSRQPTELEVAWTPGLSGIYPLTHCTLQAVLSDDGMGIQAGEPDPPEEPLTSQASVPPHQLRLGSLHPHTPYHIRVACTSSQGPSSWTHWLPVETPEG

B1: H9/L1 (antibody, human IgG1, kappa)
heavy: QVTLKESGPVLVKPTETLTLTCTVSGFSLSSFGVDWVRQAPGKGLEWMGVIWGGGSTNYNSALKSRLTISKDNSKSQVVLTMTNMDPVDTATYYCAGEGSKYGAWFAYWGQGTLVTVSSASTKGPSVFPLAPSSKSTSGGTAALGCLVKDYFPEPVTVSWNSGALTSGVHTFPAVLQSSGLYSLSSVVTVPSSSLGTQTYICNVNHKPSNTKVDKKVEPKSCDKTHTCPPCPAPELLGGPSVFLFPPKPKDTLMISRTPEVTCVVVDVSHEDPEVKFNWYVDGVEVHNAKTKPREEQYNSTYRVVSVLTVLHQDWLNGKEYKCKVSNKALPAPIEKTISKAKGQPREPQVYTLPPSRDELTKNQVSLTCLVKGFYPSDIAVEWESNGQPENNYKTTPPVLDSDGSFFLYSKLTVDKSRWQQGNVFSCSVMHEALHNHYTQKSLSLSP
light: DVVMTQSPLSLPVTLGQPASISCQSSQNIVHTNGNTYLEWYQQKPGKAPELLIYKVSNRFSGVPDRFSGSGSGTDFTLKISRVEAEDVGVYYCFQGSHIPFTFGQGTKLEIKRTVAAPSVFIFPPSDEQLKSGTASVVCLLNNFYPREAKVQWKVDNALQSGNSQESVTEQDSKDSTYSLSSTLTLSKADYEKHKVYACEVTHQGLSSPVTKSFNRGEC
B2: H26/L12 (antibody, human IgG1, kappa)
heavy: not shown
light: B1 light with K47E, L109V, K112E
B3: H9/L34 (antibody, human IgG1, kappa)
heavy: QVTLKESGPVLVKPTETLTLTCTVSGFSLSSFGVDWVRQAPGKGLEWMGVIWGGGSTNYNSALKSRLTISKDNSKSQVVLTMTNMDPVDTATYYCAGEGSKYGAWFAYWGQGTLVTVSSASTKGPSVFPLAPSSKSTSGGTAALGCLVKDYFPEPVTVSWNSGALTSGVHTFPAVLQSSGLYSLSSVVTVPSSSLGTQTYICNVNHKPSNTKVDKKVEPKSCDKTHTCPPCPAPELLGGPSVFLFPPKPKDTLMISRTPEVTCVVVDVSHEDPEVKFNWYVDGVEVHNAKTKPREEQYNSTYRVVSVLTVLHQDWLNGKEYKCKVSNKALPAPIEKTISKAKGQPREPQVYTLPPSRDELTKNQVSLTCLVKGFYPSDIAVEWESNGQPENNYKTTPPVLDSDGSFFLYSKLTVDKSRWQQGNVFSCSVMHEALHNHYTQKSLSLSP
light: B1 light with Q17R, Q24R, Q27R, E50K
B4: H9/L10 (antibody, human IgG1, kappa)
heavy: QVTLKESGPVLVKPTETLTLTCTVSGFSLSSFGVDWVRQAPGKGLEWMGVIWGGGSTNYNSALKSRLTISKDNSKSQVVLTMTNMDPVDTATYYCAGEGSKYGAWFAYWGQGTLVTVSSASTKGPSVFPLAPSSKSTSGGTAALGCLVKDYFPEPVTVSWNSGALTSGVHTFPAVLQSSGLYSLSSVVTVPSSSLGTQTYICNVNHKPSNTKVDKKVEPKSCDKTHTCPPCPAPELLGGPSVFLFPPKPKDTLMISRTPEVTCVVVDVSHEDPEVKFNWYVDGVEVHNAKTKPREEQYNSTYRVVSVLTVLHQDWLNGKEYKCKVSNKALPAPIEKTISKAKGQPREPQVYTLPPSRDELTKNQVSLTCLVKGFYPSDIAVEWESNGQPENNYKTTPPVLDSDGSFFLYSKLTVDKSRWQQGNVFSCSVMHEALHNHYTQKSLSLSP
light: B1 light with Q24R, L109V, K112E
B5: H9/L4 (antibody, human IgG1, kappa, V domains shown)
VH: QVTLKESGPVLVKPTETLTLTCTVSGFSLSSFGVDWVRQAPGKGLEWMGVIWGGGSTNYNSALKSRLTISKDNSKSQVVLTMTNMDPVDTATYYCAGEGSKYGAWFAYWGQGTLVTVSS
VL: DVVMTQSPLSLPVTLGQPASISCRSSQNIVHTNGNTYLEWYQQKPGEAPELLIYKVSNRFSGVPDRFSGSGSGTDFTLKISRVEAEDVGVYYCFQGSHIPFTFGQGTKLEIKR
B6: H22/L0 (antibody, human IgG1, kappa, V domains shown)
VH: B5 VH with A62E
VL: B5 VL with E47K
B7: H17/L0 (antibody, human IgG1, kappa, V domains shown)
VH: B5 VH with S31D
VL: B5 VL with E47K
B8: H9/L27 (antibody, human IgG1, kappa, V domains shown)
VH: B5 VH
VL: B5 VL with Q27R, E47K
B9: H9/L28 (antibody, human IgG1, kappa, V domains shown)
VH: B5 VH
VL: B5 VL with E47K, E50K
B10: H21/L0 (antibody, human IgG1, kappa, V domains shown)
VH: B5 VH with S61E
VL: B5 VL with E47K
B11: H23/L0 (antibody, human IgG1, kappa, V domains shown)
VH: B5 VH with K64Q
VL: B5 VL with E47K
B12: H20/L0 (antibody, human IgG1, kappa, V domains shown)
VH: B5 VH with A40P, K43E, M48I
VL: B5 VL with E47K
B13: H9/L29 (antibody, human IgG1, kappa)
heavy: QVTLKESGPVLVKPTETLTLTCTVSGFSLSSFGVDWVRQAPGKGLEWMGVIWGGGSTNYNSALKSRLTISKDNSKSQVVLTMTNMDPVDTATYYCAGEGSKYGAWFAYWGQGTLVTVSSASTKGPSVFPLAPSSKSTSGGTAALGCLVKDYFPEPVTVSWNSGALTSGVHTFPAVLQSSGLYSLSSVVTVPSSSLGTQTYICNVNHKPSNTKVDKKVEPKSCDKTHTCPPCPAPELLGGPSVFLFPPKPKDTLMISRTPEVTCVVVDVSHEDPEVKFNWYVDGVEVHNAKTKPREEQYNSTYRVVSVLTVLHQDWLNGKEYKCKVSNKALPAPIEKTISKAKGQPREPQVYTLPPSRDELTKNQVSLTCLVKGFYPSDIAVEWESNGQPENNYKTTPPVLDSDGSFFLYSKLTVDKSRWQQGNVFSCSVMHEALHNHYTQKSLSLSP
light: B1 light with Q24R, Q105R
B14: H9/L35 (antibody, human IgG1, kappa)
heavy: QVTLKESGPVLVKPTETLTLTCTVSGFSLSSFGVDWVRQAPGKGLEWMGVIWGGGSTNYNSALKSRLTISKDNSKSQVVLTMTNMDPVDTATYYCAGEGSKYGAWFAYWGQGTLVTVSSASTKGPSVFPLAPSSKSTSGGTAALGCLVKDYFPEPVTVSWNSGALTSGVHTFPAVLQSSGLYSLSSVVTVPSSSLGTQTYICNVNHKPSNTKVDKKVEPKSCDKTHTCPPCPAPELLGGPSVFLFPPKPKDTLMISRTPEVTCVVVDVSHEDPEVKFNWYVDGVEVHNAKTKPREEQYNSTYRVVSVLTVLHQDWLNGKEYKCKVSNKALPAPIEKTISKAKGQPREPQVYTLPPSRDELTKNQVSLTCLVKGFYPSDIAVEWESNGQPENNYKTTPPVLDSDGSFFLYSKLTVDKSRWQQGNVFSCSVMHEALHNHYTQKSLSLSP
light: B1 light with Q24R, Q27R, E50K, Q105R
B15: H18/L0 (antibody, human IgG1, kappa, V domains shown)
VH: B5 VH with S31E
VL: B5 VL with E47K
B16: H26/L13 (antibody, human IgG1, kappa)
heavy: not shown
light: B1 light with K47Q, L109V, K112E
B17: H24/L0 (antibody, human IgG1, kappa, V domains shown)
VH: B5 VH with S65D
VL: B5 VL with E47K
B18: H27/L0 (antibody, human IgG1, kappa, V domains shown)
VH: B5 VH with A62E, K64Q, S65D
VL: B5 VL with E47K
B19: H9/L37 (antibody, human IgG1, kappa)
heavy: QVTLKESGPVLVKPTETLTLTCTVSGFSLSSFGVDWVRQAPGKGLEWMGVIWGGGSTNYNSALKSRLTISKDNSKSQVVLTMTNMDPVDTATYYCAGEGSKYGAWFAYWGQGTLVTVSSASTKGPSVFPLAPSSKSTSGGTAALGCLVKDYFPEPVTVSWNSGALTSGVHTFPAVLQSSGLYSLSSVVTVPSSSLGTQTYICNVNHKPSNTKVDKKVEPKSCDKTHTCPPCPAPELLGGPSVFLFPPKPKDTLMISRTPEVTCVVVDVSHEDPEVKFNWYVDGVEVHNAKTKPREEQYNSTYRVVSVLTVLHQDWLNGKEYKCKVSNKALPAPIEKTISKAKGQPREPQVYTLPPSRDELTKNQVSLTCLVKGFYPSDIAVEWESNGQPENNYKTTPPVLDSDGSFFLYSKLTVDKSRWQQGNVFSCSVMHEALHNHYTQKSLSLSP
light: B1 light with Q17R, Q24R, Q27R, E50K, Q105R
B20: H26/L10 (antibody, human IgG1, kappa)
heavy: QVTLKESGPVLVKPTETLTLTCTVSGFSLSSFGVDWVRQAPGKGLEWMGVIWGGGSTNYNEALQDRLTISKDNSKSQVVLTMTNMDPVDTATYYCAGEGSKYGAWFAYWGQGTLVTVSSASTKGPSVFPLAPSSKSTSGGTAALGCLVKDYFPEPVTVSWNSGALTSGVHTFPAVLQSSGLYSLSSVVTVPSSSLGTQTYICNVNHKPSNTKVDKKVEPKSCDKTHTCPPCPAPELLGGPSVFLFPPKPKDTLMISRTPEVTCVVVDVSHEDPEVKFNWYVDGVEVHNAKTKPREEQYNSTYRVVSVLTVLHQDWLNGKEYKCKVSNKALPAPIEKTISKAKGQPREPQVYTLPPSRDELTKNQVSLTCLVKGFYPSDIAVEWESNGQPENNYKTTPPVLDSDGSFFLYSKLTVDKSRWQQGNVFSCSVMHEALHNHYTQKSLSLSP
light: B1 light with Q24R, L109V, K112E
B21: H26/L0 (antibody, human IgG1, kappa)
heavy: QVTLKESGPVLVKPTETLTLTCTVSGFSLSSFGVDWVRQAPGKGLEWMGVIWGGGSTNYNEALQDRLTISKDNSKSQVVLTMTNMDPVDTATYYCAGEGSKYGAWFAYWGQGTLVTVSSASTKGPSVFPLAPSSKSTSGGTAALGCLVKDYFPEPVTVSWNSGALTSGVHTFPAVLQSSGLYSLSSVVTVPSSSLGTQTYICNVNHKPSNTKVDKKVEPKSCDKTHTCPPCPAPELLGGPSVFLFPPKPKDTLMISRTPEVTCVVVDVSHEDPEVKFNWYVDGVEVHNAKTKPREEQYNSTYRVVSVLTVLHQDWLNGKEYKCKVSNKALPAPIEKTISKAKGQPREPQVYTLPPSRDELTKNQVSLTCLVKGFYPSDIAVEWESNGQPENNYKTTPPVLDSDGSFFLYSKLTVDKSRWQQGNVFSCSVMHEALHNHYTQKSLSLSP
light: B1 light with Q24R
B22: H9/L5 (antibody, human IgG1, kappa, V domains shown)
VH: B5 VH
VL: B5 VL with E47Q
B23: H26/L11 (antibody, human IgG1, kappa)
heavy: not shown
light: B1 light with L109V, K112E
B24: H9/L13 (antibody, human IgG1, kappa, V domains shown)
VH: B5 VH
VL: B5 VL with R24Q, E47Q, L109V, K112E
B25: H9/L11 (antibody, human IgG1, kappa)
heavy: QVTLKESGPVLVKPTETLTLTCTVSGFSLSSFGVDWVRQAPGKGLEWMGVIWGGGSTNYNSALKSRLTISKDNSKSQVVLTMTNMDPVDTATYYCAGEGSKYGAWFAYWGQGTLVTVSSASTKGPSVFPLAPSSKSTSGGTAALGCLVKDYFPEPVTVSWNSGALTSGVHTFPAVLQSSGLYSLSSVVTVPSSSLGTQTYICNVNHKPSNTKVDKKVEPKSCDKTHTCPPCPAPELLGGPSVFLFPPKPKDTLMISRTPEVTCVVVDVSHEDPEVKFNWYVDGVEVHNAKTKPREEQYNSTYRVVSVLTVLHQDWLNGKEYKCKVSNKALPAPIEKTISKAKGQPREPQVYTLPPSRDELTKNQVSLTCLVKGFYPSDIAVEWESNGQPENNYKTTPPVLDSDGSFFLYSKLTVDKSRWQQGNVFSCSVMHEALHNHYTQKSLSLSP
light: B1 light with L109V, K112E
B26: H25/L0 (antibody, human IgG1, kappa, V domains shown)
VH: B5 VH with K64Q, S65D
VL: B5 VL with E47K
B27: H9/L31 (antibody, human IgG1, kappa)
heavy: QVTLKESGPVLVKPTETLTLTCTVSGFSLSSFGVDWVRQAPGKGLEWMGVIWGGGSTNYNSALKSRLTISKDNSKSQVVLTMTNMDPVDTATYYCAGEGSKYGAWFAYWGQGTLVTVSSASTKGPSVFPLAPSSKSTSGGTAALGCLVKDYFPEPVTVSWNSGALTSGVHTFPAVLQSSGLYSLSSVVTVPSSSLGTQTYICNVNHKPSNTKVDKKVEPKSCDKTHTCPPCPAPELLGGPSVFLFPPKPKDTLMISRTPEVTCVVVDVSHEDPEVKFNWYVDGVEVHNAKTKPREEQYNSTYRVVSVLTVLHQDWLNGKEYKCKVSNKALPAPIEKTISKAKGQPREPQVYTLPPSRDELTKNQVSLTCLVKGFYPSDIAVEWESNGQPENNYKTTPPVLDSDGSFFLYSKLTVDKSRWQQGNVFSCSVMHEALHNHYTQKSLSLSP
light: B1 light with Q24R, Q27R, E50K
B28: H9/L12 (antibody, human IgG1, kappa, V domains shown)
VH: B5 VH
VL: B5 VL with R24Q, L109V, K112E
B29: H9/L25 (antibody, human IgG1, kappa)
heavy: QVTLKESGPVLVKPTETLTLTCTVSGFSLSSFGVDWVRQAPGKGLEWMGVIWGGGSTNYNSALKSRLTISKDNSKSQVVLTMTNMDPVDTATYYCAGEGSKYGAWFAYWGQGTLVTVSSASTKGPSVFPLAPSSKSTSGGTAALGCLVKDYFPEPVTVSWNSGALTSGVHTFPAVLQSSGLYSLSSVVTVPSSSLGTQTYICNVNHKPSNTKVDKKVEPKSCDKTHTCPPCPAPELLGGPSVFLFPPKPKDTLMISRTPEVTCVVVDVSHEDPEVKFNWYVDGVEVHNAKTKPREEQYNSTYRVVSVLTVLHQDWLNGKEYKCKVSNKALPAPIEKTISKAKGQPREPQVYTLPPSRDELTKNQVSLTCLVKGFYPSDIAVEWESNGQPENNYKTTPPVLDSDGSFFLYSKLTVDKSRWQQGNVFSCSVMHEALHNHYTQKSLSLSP
light: B1 light with Q17R, Q24R
B30: H9/L3 (antibody, human IgG1, kappa, V domains shown)
VH: B5 VH
VL: B5 VL with R24Q, Q27E, E47K
B31: H28/L0 (antibody, human IgG1, kappa, V domains shown)
VH: B5 VH with S61E, A62E, K64Q, S65D
VL: B5 VL with E47K
B32: H19/L0 (antibody, human IgG1, kappa, V domains shown)
VH: B5 VH with K43Q
VL: B5 VL with E47K

Molecular target: T1, Human recombinant AXL-FND1 (GST-FND1), …
Assay: SPR (Biacore T100): antibody captured on Protein A, GST-FND1 as analyte
Procedure: Kinetic analyses of antigen-antibody reactions of humanized AXL antibodies were carried out using Biacore T100 (BIACORE). rec-Protein A (Zymed) (hereinafter, Protein A) was immobilized onto a sensor chip, various antibodies were bound to it, then an antigen as the analyte was flushed to measure the antibody-antigen interaction. Human recombinant AXL-FND1 (prepared in 2-2; hereinafter referred to as GST-FND1) prepared at various concentrations was used as the antigen. From the sensorgrams obtained through the measurements, kinetic parameters, namely binding rate constant kₐ (1/Ms) and dissociation rate constant kd (1/s), were calculated, and Kd (M) was calculated based on these values. Biacore T100 Evaluation Software (BIACORE) was used to calculate each of the parameters.
The sensor chips were produced by immobilizing approximately 3000 RU of Protein A onto CM5 (BIACORE) by amine coupling. Using the produced sensor chip, kinetic analyses were carried out on the interaction between the Protein A-bound antibodies and GST-FND1. HBS-EP+ was used as the running buffer, and the flow rate was set to 30 μL/min. Each antibody was prepared at 1 μg/mL using the running buffer, and was subjected to binding with Protein A for two minutes. GST-FND1 as the analyte was prepared at 0.5 and 2.0 μg/mL using HBS-EP+. Measurements were carried out by first binding the various humanized AXL antibodies, chimeric AXL antibodies, or mouse AXL antibodies of interest to Protein A, then applying an analyte solution to them for a two-minute interaction, and then switching to HBS-EP+ (BIACORE) for a two-minute measurement of the dissociation phase. After completion of measurement of the dissociation phase, 30 μL of 10 mM glycine-HCl (pH 2.0) was used for washing to regenerate the sensor chip. Such binding, dissociation, and regeneration were defined as one cycle of analysis. All experiments were performed at 25° C.
Affinity evaluation of each of the variants by Biacore was carried out by the method of Example 2.

Kd [nM]	Binder
2.49	B1
2.79	B2
2.8	B3
2.92	B4
2.64	B5
3.14	B6
3.46	B7
3.07	B8
3.06	B9
2.35	B10
2.39	B11
3.21	B12
3.49	B13
2.37	B14
4.31	B15
2.5	B16

Kd [nM]	Binder
2.56	B17
3.03	B18
2.69	B19
2.38	B20
2.5	B21
2.53	B22
2.71	B23
2.45	B24
2.4	B25
2.5	B26
2.46	B27
2.55	B28
3.54	B29
2.97	B30
2.94	B31
2.63	B32
